# Results published in article PMC10567725, “Structure of full-length cobalamin-dependent methionine synthase and cofactor loading captured in crystallo” (Nature Communications, 2023).
# Experiments:
# Assay in all cases: purified protein
# purified protein [1] = substrate: NC(CCS)C(=O)O; type: biochemical, Thermus thermophilus; conditions: 250 µM CH3-H4folate, SAM, aquacobalamin, DTT, pH 7.2, 50 °C, holo-tMS, DL-homocysteine varied
# purified protein [2] = substrate: CN1c2c(nc(N)[nH]c2=O)NC[C@@H]1CNc1ccc(C(=O)N[C@@H](CCC(=O)O)C(=O)O)cc1; conditions: 100 µM homocysteine, SAM, aquacobalamin, DTT, pH 7.2, 50 °C, holo-tMS (MeCbl), pH 7.2
# purified protein [3] = substrate: C[S+](CC[C@H](N)C(=O)O)C[C@H]1O[C@@H](n2cnc3c(N)ncnc32)[C@H](O)[C@@H]1O; conditions: 1.25 mM DL-homocysteine, 104 µM (6S)-methyltetrahydrofolate, 50 °C, holo-tMS, reactivation (reductive methylation of cob(II)alamin)
protein,measurement,setting,value
"tMS (full-length cobalamin-dependent methionine synthase) (Thermus thermophilus HB8) (protein, full-length wild type, five modules Hcy:Fol:Cap:Cob:Act, N-terminal His tag with TEV site (cut), E. coli BL21star(DE3); holoenzyme reconstituted with MeCbl; 132 kDa) MVEVHACSPGCRHHLGGAGWGDAPLVRLGYNKEARAKKFPYLKALLERPLVFDGAMGTELQKRDLTPEDYGGEAYFGCPEVLNRTRPEVVREIHLAYLEAGAEVIETNTFGALRHVLAEYGLEEAAEELAFLGARIAREAADPHGAFVAGALGPGTKLVSLGQISWDALYRAYKEAARGLLKGGVDLILLETAQDILQVRCAVLAVREAMAEVGREVPLQVQVTFEATGTMLVGTDEQAALAALESLPVDVVGMNCATGPDLMDSKVRYFAEHSTRFVSCLPNAGLPRNEGGRVVYDLTPEELAKWHLKFVAEYGVNAVGGCCGTGPEHIRKVAEAVKGLAPKPRPESFPPQVASLYQAVSLKQEASLFLVGERLNATGSKRFREMLFARDLEGILALAREQVEEGAHALDLSVAWTGRDELEDLRWLLPHLATALTVPVMVDSTSPEAMELALKYLPGRVLLNSANLEDGLERFDRVASLAKAHGAALVVLAIDEKGMAKTREEKVRVALRMYERLTEHHGLRPEDLLFDLLTFPITQGDEESRPLAKETLLAMEELRERLPGVGFVLGVSNVSFGLKPRARRVLNSVFLDEARKRGLTAAIVDAGKILPISQIPEEAYALALDLIYDRRKEGFDPLLAFMAYFEAHKEDPGKREDAFLALPLLERLKRRVVEGRKQGLEADLEEALKAGHKPLDLINGPLLAGMKEVGDLFGAGKMQLPFVLQAAEVMKRAVAYLEPHMEKKGEGKGTLVLATVKGDVHDIGKNLVDIILSNNGYRVVNLGIKVPIEEILKAVEAHKPHAVGMSGLLVKSTLVMKENLEYMRDRGYTLPVILGGAALTRSYVEELRAIYPNVYYAEDAFEGLRLMEELTGHAPPELTRKAPARPKREAPKVAPRARPVGEAPAVPRPPFFGVRVEEGLDLATIAHYVNKLALYRGQWGYSRKGLSREAWQALVEREAEPVFQRLLKEAMAEGWLEPKVLYGFFPVAREGEELLVFSPETGEVLERFRFPRQKGGGLSLVDYFRPRFAAPLGDEADWMPKEAFRAGARDVLGVQLVTMGEAPSRKAQALFASGAYQDYLFVHGFSVEMTEALAEYWHKRMRQMWGIAHQDATEIQKLFQQGYQGARYSFGYPACPDLADQAKLDRLMGFHRVGVRLTENFQLEPEHATSALVVHHPEARYFSVD",Km,purified protein [1],9.3 ± 3.1 µM
same,Km,purified protein [2],18 ± 4.1 µM
same,Km,purified protein [3],1.0 ± 0.1 µM
